Measured values from CN113817063A (XIAMEN INNOBIOMAX BIOTECHNOLOGY CO LTD, dated 2021).

How the values were obtained:
DP1 (DCP 1-15 15肽) = target: T1, DP1 (DCP 1-15 15肽) (human); assay: peptide competition ELISA on coated 抗原1
T1 peptide: ANTFLEEVRKGNLER

DP2 (DCP 11-25 15肽) = target: T2, DP2 (DCP 11-25 15肽) (human); assay: peptide competition ELISA on coated 抗原1
T2 peptide: GNLERECVEETCSYE

DP3 (DCP 21-35 15肽) = target: T3, DP3 (DCP 21-35 15肽) (human); assay: peptide competition ELISA on coated 抗原1
T3 peptide: TCSYEEAFEALESST

DP5 (DCP 41-55 15肽) = target: T4, DP5 (DCP 41-55 15肽) (human); assay: peptide competition ELISA on coated 抗原1
T4 peptide: WAKYTACETARTPRD

DP42 (DCP 32-39 8肽) [1] = target: T5, DP42 (DCP 32-39 8肽) (human); assay: 8-mer peptide competition ELISA on coated 抗原1
T5 peptide: ESSTATDV

DP45 (DCP 35-42 8肽) [2] = target: T6, DP45 (DCP 35-42 8肽) (human); assay: 8-mer peptide competition ELISA on coated 抗原1
T6 peptide: TATDVFWA

DP46 (DCP 36-43 8肽) [3] = target: T7, DP46 (DCP 36-43 8肽) (human); assay: 8-mer peptide competition ELISA on coated 抗原1
T7 peptide: ATDVFWAK

DP47 (DCP 37-44 8肽) [4] = target: T8, DP47 (DCP 37-44 8肽) (human); assay: 8-mer peptide competition ELISA on coated 抗原1
T8 peptide: TDVFWAKY

DP48 (DCP 38-45 8肽) [5] = target: T9, DP48 (DCP 38-45 8肽) (human); assay: 8-mer peptide competition ELISA on coated 抗原1
T9 peptide: DVFWAKYT

DP41 (DCP 31-38 8肽) [6] = target: T10, DP41 (DCP 31-38 8肽) (human); assay: 8-mer peptide competition ELISA on coated 抗原1
T10 peptide: LESSTATD

[7] = target: T11, 人异常凝血酶原 (Des-γ-carboxyprothrombin) (human, UniProt P00734 44-622, 第6，7，14，16，19，20，25，26，29和32位的Glu残基一个或多个羧化不全 (not fully gamma-carboxylated)); assay: sandwich ELISA, 11H8-3 capture, 10D9-1-HRP detection, DCP in controls and sera
T11 construct: also called DCP; PIVKA-II

DP42 (DCP 32-39 8肽) [8] = target: T5, DP42 (DCP 32-39 8肽); assay: competition ELISA: 100ng/ml antibody pre-incubated with 50ug/ml 8-mer peptide, read on coated 抗原1
DP43 (DCP 33-40 8肽) = target: T12, DP43 (DCP 33-40 8肽) (human); assay: as above
T12 peptide: SSTATDVF

DP44 (DCP 34-41 8肽) = target: T13, DP44 (DCP 34-41 8肽) (human); assay: as above
T13 peptide: STATDVFW

DP45 (DCP 35-42 8肽) [9] = target: T6, DP45 (DCP 35-42 8肽); assay: as above
DP46 (DCP 36-43 8肽) [10] = target: T7, DP46 (DCP 36-43 8肽); assay: as above
DP47 (DCP 37-44 8肽) [11] = target: T8, DP47 (DCP 37-44 8肽); assay: as above
DP48 (DCP 38-45 8肽) [12] = target: T9, DP48 (DCP 38-45 8肽); assay: as above
DP41 (DCP 31-38 8肽) [13] = target: T10, DP41 (DCP 31-38 8肽); assay: as above

binding result (DP42 (DCP 32-39 8肽) [1]): no binding (tested: 50ug/ml多肽)
binding result (DP45 (DCP 35-42 8肽) [2]): no binding (tested: 50ug/ml多肽)
binding result (DP46 (DCP 36-43 8肽) [3]): no binding (tested: 50ug/ml多肽)
binding result (DP47 (DCP 37-44 8肽) [4]): no binding (tested: 50ug/ml多肽)
binding result (DP48 (DCP 38-45 8肽) [5]): no binding (tested: 50ug/ml多肽)
binding result (DP41 (DCP 31-38 8肽) [6]): no binding (tested: 50ug/ml多肽)
binding result [7]: binds
competition rate (对照样品OD值-检测样品OD值)/对照样品OD值 (DP42 (DCP 32-39 8肽) [8]): 10%
competition rate (对照样品OD值-检测样品OD值)/对照样品OD值 (DP43 (DCP 33-40 8肽)): 33%
competition rate (对照样品OD值-检测样品OD值)/对照样品OD值 (DP44 (DCP 34-41 8肽)): 29%
competition rate (对照样品OD值-检测样品OD值)/对照样品OD值 (DP45 (DCP 35-42 8肽) [9]): -9%
competition rate (对照样品OD值-检测样品OD值)/对照样品OD值 (DP46 (DCP 36-43 8肽) [10]): 4%
competition rate (对照样品OD值-检测样品OD值)/对照样品OD值 (DP47 (DCP 37-44 8肽) [11]): 11%
competition rate (对照样品OD值-检测样品OD值)/对照样品OD值 (DP48 (DCP 38-45 8肽) [12]): 10%
competition rate (对照样品OD值-检测样品OD值)/对照样品OD值 (DP41 (DCP 31-38 8肽) [13]): -2%
B1: 抗人DCP单克隆抗体10D9-1 (antibody, IgG1, V domains shown)
VH: EVQLQQSGPELVKPGASVKMSCKASGYTFTSYVMHWVKQKPGQGLEWIGYIFPYNDVTEYNEKFKGKATLTSDKSSSTAYMELSSLTSEDSAVYYCARWGGRNYWGQGTSVTV
VL: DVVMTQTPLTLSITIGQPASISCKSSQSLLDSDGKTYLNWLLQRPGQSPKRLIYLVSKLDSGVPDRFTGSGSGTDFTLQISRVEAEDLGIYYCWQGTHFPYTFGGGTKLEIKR
notes: also called 抗人异常凝血酶原单克隆抗体; 10D9-1-HRP
binding result (DP1 (DCP 1-15 15肽)): no binding (tested: 判定标准为:大于90%以上显示有良好的竞争效果; 50ug/ml多肽)
binding result (DP2 (DCP 11-25 15肽)): no binding (tested: 判定标准为:大于90%以上显示有良好的竞争效果; 50ug/ml多肽)
binding result (DP3 (DCP 21-35 15肽)): no binding (tested: 判定标准为:大于90%以上显示有良好的竞争效果; 50ug/ml多肽)
binding result (DP5 (DCP 41-55 15肽)): no binding (tested: 判定标准为:大于90%以上显示有良好的竞争效果; 50ug/ml多肽)
